{
  "source": "patent US9745384B2",
  "about": "“Peptides useful for modulating histone demethylase function” (The Brigham and Women's Hospital, Inc., priority 2012, dated 2017)",
  "molecules": {"B1": {"name": "NPAC: full-length human NPAC/GLYR1 (protein ID: Q49A26), recombinant, LSD2 cofactor (protein)", "chain": "MAAVSLRLGDLVWGKLGRYPPWPGKIVNPPKDLKKPRGKKCFFVKFFGTEDHAWIKVEQLKPYHAHKEEMIKINKGKRFQQAVDAVEEFLRRAKGKDQTSSHNSSDDKNRRNSSEERSRPNSGDEKRKLSLSEGKVKKNMGEGKKRVSSGSSERGSKSPLKRAQEQSPRKRGRPPKDEKDLTIPESSTVKGMMAGPMAAFKWQPTASEPVKDADPHFHHFLLSQTEKPAVCYQAITKKLKICEEETGSTSIQAADSTAVNGSITPTDKKIGFLGLGLMGSGIVSNLLKMGHTVTVWNRTAEKCDLFIQEGARLGRTPAEVVSTCDITFACVSDPKAAKDLVLGPSGVLQGIRPGKCYVDMSTVDADTVTELAQVIVSRGGRFLEAPVSGNQQLSNDGMLVILAAGDRGLYEDCSSCFQAMGKTSFFLGEVGNAAKMMLIVNMVQGSFMATIAEGLTLAHVTGQSQQTLLDILNQGQLASIFLDQKCQNILQGNFKPDFYLKYIQKDLRLAIALGDAVNHPTPMAAAANEVYKRAKALDQSDNDMSAVYRAYIH"}},
  "key": {"[1]": {"tested_on": "nucleosomes purified from HeLa", "assay": "Nucleosome pulldown by GST-NPAC proteins", "assay_type": "binding", "procedure": "Nucleosomes were purified from HeLa as previously described (Umlauf et al., 2004). To examine nucleosome binding selectivity of NPAC, 5 μg GST fusion protein bound to glutathione agarose were incubated with 20 μg nucleosomes overnight at 4° C. in nucleosome binding buffer (50 mM NaPO4 pH 7.4, 200 mM NaCl, 0.5% NP-40, 5% glycerol, 10 μM ZnSO4, 1 mM MgCl2, 1 mM DTT, 0.1 mM PMSF). After washing 4 times with the same buffer at 4° C., the beads were boiled in 1×SDS sample loading buffer and elute was resolved by 15% SDS-PAGE for immunoblot analysis or coomassie staining.\nFor free-DNA competition assays, human genomic DNA was purified from HeLa cells and fragmented to an average size around 300 bp by sonication. Equal amounts of GST-NPAC.d5 bound to glutathione beads were pre-incubated with 0, 5, 10, 25 μg genomic DNA fragments in nucleosome binding buffer for 30 minutes at room temperature, and equal amounts of nucleosomes were added and incubated overnight at 4° C. After extensive washing, GST-NPAC.d5 and bound nucleosomes were eluted by boiling in 1×SDS sample loading buffer, resolved by SDS-PAGE and stained with coomassie blue."}, "LSD2": {"target": "T1, LSD2 (Homo sapiens, UniProt Q8NB78)", "T1 sequence (Q8NB78 1-822)": "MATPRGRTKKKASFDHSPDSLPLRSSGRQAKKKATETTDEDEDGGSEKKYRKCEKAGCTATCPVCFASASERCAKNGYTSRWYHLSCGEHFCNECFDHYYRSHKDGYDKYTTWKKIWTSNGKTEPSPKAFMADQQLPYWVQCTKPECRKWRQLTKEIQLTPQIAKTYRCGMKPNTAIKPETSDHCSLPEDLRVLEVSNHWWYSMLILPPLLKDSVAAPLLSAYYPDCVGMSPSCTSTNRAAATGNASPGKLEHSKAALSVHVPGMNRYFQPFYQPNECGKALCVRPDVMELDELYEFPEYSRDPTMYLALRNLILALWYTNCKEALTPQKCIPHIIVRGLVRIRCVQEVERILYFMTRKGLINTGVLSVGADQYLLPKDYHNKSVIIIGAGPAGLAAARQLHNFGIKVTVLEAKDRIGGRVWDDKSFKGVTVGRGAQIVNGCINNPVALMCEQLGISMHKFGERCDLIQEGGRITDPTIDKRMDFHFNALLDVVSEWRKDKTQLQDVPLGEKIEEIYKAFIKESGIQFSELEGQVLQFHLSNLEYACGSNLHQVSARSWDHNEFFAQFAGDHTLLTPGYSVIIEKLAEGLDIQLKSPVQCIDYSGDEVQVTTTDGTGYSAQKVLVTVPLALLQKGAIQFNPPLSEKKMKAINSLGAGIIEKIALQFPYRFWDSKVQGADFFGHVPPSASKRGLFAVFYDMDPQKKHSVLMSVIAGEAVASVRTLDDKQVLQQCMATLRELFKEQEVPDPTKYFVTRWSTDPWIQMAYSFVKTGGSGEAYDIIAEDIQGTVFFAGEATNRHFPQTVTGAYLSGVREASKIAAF", "assay": "Immunofluorescence of histone methylation in cells coexpressing LSD2 and NPAC", "assay_type": "cell-based", "set-up": "expressed in transfected cells; host or cells: U2OS", "procedure": "FIG. 1A depicts a schematic of NPAC domain structure. AT, AT-hook motif. PWWP, Pro-Trp-Trp-Pro domain (SEQ ID NO: 63). […] Tandem affinity purified NPAC and LSD2 complexes were incubated with nucleosomes purified from HeLa, and analyzed by immunoblot using indicated antibodies. […] The amount of LSD2 enzyme and NPAC cofactor proteins used in each reaction is indicated. Demethylation was assessed by Immunoblot using indicated antibodies. […] Representatives with similar levels of GFP-LSD2 are shown. See also FIGS. 7A-7D.\nFIG. 7A depicts the determination of the threshold dosage of purified LSD2 required for nucleosomal H3K4 demethylation. 2 μg of nucleosomes purified from HeLa were incubated with various amount of His-LSD2 proteins for 2 hours at 30° C. The demethylation reactions were analyzed by immunoblotting using indicated antibodies. […] 2 μg LSD1 in combination with 5 μg purified NPAC or CoREST protein was used for histone demethylase assays. […] Transfected cells are marked by arrows; cells shown significant reduction of H3K4me1 are marked by dotted circles. […] In contrast, coexpression of LSD2 and NPAC induces obvious global decrease of H3K4me1. […] FIG. 7D depicts immunofluorescence analyses of H3K9me2 demethylation in cells coexpressing LSD2 and full-length NPAC."}},
  "data": [
    {"molecule": "B1", "values": [
      {"measurement": "Nucleosome binding (GST-pulldown)", "setting": "[1]", "value": "binds strongly with purified nucleosomes"},
      {"measurement": "Change of H3K9me2 and other histone marks in cells", "setting": "LSD2; coexpression of NPAC and LSD2", "value": "no detectable changes"},
      {"measurement": "Depletion of di- and mono-methylated H3K4 in cells", "setting": "LSD2; coexpression of NPAC and LSD2 vs LSD2 alone, U2OS", "value": "much more pronounced depletion of di- and mono-methylated H3K4 in cells than expressing LSD2 alone"}
    ]}
  ]
}
